For one assay, the target named is CD19 (human) (UniProt P15391). Put plainly: SPR (Biacore T200), scFv-Fc captured on an anti-IgG CM5 chip, interaction partner injected, 1:1 Langmuir fit. (In SPR one partner is held on a chip, and binding of the other changes the refractive index at the surface.)
In a further assay the target is CD22 (human) (UniProt P20273). The assay is described as above.

CD19 (human), sequence (P15391 21-278 limits assumed): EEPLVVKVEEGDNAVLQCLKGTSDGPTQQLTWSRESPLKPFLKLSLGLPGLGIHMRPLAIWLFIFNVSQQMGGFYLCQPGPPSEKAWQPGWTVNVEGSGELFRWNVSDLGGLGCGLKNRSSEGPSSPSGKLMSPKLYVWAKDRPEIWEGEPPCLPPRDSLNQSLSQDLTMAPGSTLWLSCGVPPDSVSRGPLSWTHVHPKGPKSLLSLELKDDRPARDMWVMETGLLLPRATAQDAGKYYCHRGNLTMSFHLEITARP

B1: murine CD19ALAb scFv (scFv, part only; not given: VH-VL linker and Fc, not shown: another chain or arm of the molecule; a dimerising Fc or GST; small tags and cut ends)
scFv: QVQLQQSGAELVRPGSSVKISCKASGYAFSSYWMNWVKQRPGQGLEWIGQIWPGDGDTNYNGKFKGKATLTADESSSTAYMQLSSLASEDSAVYFCARRETTTVGRYYYAMDYWGQGTTVTVSSDIQLTQSPASLAVSLGQRATISCKASQSVDYDGDSYLNWYQQIPGQPPKLLIYDASNLVSGIPPRFSGSGSGTDFTLNIHPVEKVDAATYHCQQSTEDPWTFGGGTKLEIK
Regarding B1, in the assay with CD19 (human), the koff (usually the rate constant with which the complex falls apart) was 0.000328 s⁻¹ and the on-rate constant (kon) (usually the second-order rate constant of association) amounted to 178000 M⁻¹ s⁻¹.

B2: humanized CD22ALAb scFv (scFv, part only; not given: VH-VL linker and Fc, not shown: another chain or arm of the molecule; a dimerising Fc or GST; small tags and cut ends)
scFv: EVQLVESGAEVKKPGSSVKVSCKASGYTFTNYWINWVRQAPGQGLEWIGNIYPSDSFTNYNQKFKDRATLTVDKSTSTAYLELRNLRSDDTAVYYCTRDTQERSWYFDVWGQGTLVTVSSDIVMTQSPATLSVSPGERATLSCRSSQSLVHSNGNTYLHWYQQKPGQAPRLLIYKVSNRFSGVPARFSGSGSGVEFTLTISSLQSEDFAVYYCSQSTHVPWTFGQGTRLEIK
As to B2, in the assay with CD22 (human), the Kd (commonly the concentration at which binding is half-saturated) was determined as 32 nM, the koff was 0.00226 s⁻¹ and the on-rate constant (kon) came to 68300 M⁻¹ s⁻¹.

For the origin of these results see patent publication US12398194.
